In article PMC4997359 (Scientific Reports, 2016):

Key:
[1] = target: H2A–H2BT112C-Alexa 488 dimer (UniProt P06897); experiment: other fluorescence titration; saturation stoichiometry: labelled histone dimers at 10 times the apparent Kd titrated with NP; molar ratio at the intersection of the linear phase with the plateau; 150 mM NaCl, 20 mM Tris-HCl, pH 7.6, 1 mM DTT, 0.1 mg/ml BSA
[2] = target: H3C110E-H4T71C-Alexa 488 (predominantly dimeric H3-H4 variant); experiment: as above
[3] = target: H3C110E-H4T71C-Alexa 488 (predominantly dimeric H3-H4 variant); experiment: other fluorescence titration; labelled H3-H4 (H3C110E-H4T71C or H3C110A-H4T71C, Alexa 488; 0.1–10 nM) titrated with increasing NP (pentamer); 150 mM NaCl, 20 mM Tris-HCl, pH 7.6, 1 mM DTT, 0.1 mg/ml BSA; apparent Kd; ligand-depleted model with 2 sites per NP pentamer
[4] = target: cross-linked H3C110AK115C-H4T71C-Alexa 488 tetramer; experiment: other fluorescence titration; cross-linked H3C110AK115C-H4T71C-Alexa 488 titrated with increasing NP (pentamer); 150 mM NaCl, 20 mM Tris-HCl, pH 7.6, 1 mM DTT, 1% glycerol, 0.05% Tween 20; apparent Kd; ligand-depleted model, 1/1 NP pentamer/histone tetramer
[5] = target: cross-linked H3C110AK115C-H4T71C-Alexa 488 tetramer; experiment: other fluorescence titration; saturation stoichiometry: cross-linked H3C110AK115C-H4T71C-Alexa 488 at 10 times the apparent Kd titrated with NP; 150 mM NaCl, 20 mM Tris-HCl, pH 7.6, 1 mM DTT, 1% glycerol, 0.05% Tween 20
[6] = target: H2A–H2BT112C-Alexa 488 dimer (UniProt P06897); experiment: other fluorescence titration; labelled H2A–H2BT112C-Alexa 488 (0.1–10 nM) titrated with increasing NP (pentamer); 150 mM NaCl, 20 mM Tris-HCl, pH 7.6, 1 mM DTT, 0.1 mg/ml BSA; apparent Kd; ligand-depleted model with 5 sites per NP pentamer
[7] = target: full-length recombinant nucleoplasmin (rNP) (X. laevis) (UniProt P05221); experiment: other fluorescence titration; competition: preformed NP/H2A–H2BT112C-Alexa 488 complexes (eNP 0.1 nM/histone 1 nM; rNP 0.5 nM/histone 5 nM) titrated with unlabelled H1 or H5; EC50 converted by the Cheng-Prusoff equation; apparent Kd
[8] = target: egg nucleoplasmin (eNP), native NP from Xenopus laevis eggs (X. laevis) (UniProt P05221); experiment: as above
[9] = target: T1, egg nucleoplasmin (eNP), native NP from Xenopus laevis eggs (X. laevis, UniProt P05221 1-200, natural post-translational modifications, in particular phosphorylation (hyperphosphorylated); sites not printed in the text (circles in Figure 1A)); experiment: as above; settings: both partners purified
T1 construct: nucleoplasmin (NPM2), Xenopus laevis, 22 kDa subunit, residues 1-200 (core 1-120, tail 121-200); Homopentamer; also called NPM2; natural NP

[10] = target: T2, full-length recombinant nucleoplasmin (rNP) (X. laevis, UniProt P05221 1-200); experiment: as above; settings: both partners purified
T2 construct: nucleoplasmin (NPM2), Xenopus laevis, full length recombinant, non-phosphorylated; also called recombinant NP

For “egg nucleoplasmin (eNP), native NP from Xenopus laevis eggs (from UniProt P05221 1-200) (natural protein)”, the stoichiometry N (H2A–H2B dimers per NP pentamer) [1] was 5, the stoichiometry N (H3-H4 dimers per NP pentamer) [2] was 2 and the Kd [3] was 0.05 nM. It also gave a Kd [4] of 1.1 nM, a stoichiometry N (cross-linked tetramer per NP pentamer) [5] of 1 and a Kd [6] of 0.06 nM.

“full-length recombinant nucleoplasmin (rNP) (from UniProt P05221 1-200) (natural protein)” showed a stoichiometry N (H2A–H2B dimers per NP pentamer) [1] of 2, a Kd [3] of 3 nM and a Kd [4] of 2.1 nM. The stoichiometry N (cross-linked tetramer per NP pentamer) [5] was 1 and the Kd [6] was 7 nM.

“linker histone H1 from chicken erythrocyte chromatin (from UniProt P09987 1-218) (natural protein)” was tested, and the Kd [7] was 1.7 nM and the Kd [8] was 0.07 nM.

For “oocyte nucleoplasmin (oNP), NP isolated from X. laevis oocytes (from UniProt P05221 1-200) (natural protein)”, the stoichiometry N (H2A–H2B dimers per NP pentamer) [1] was 3, the Kd [3] was 0.09 nM and the Kd [6] was 0.11 nM.

For “rNPΔ120–200, recombinant nucleoplasmin core lacking the whole C-terminal domain (from UniProt P05221 1-119) (domain or fragment)”, the Kd [3] was 16000 nM and the Kd [6] was 11 nM.

“rNPΔ150–200, recombinant nucleoplasmin lacking the last 50 residues (from UniProt P05221 1-149) (domain or fragment)” was tested, and the stoichiometry N (H2A–H2B dimers per NP pentamer) [1] was 5, the Kd [3] was 0.05 nM and the Kd [6] was 0.12 nM.

B1: linker histone H5 from chicken erythrocyte chromatin (natural protein, UniProt P02259 1-190, looked up)
chain: MTESLVLSPAPAKPKRVKASRRSASHPTYSEMIAAAIRAEKSRGGSSRQSIQKYIKSHYKVGHNADLQIKLSIRRLLAAGVLKQTKGVGASGSFRLAKSDKAKRSPGKKKKAVRRSTSPKKAARPRKARSPAKKPKATARKARKKSRASPKKAKKPKTVKAKSRKASKAKKVKRSKPRAKSGARKSPKKK
notes: histone H5, chicken erythrocytes; Unlabelled
B1 showed a Kd [9] of 0.03 ± 0.006 nM and a Kd [10] of 0.7 ± 0.2 nM.
